Measurements published in patent US20150110788A1 (published 2015).

T1: VEGF (UniProt P15692 27-191)
T1 chain: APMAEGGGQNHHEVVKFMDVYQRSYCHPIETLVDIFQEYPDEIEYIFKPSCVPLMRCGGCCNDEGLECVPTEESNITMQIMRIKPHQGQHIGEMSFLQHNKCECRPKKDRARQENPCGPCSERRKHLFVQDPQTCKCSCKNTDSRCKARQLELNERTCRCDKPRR


Experiments:
VEGF = molecular target: T1, VEGF; experiment: ELISA
FGF2 = FGF2 (UniProt P09038 143-288); experiment: ELISA
Chain of FGF2 (P09038 143-288): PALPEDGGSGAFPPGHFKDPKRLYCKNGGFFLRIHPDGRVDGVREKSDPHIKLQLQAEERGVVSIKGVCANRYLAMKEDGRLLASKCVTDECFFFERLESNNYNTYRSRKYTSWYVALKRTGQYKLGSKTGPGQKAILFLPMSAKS

Row | EC50 (VEGF) [nM] | EC50 (FGF2) [nM] | Binder
1 | 1.43 | 0.35 | X-Ava/F2 (bispecific antibody) light 1: DIQMTQSPSSLSASVGDRVTITCKASQSVSSDVGWYQQKPGKAPKLLIYSGSNRYSGVPSRFSGSGSGTDFTLTISSLQPEDFATYYCQQDYYSPWTFGQGTKVEIKRTVAAPSVFIFPPSDEQLKSGTASVVCLLNNFYPREAKVQWKVDNALQSGNSQESVTEQDSKDSTYSLSSTLTLSKADYEKHKVYACEVTHQGLSSPVTKSFNRGEC heavy 1: not shown light 2: DIQMTQSPSSLSASVGDRVTITCSASQDISNYLNWYQQKPGKAPKVLIYFTSSLHSGVPSRFSGSGSGTDFTLTISSLQPEDFATYYCQQYSTVPWTFGQGTKVEIKSSASTKGPSVFPLAPSSKSTSGGTAALGCLVKDYFPEPVTVSWNSGALTSGVHTFPAVLQSSGLYSLSSVVTVPSSSLGTQTYICNVNHKPSNTKVDKRVEPKSC heavy 2: not shown
2 |  | 0.1 | HuGAL-F2 (antibody, V domains shown) VH: EVQLVQSGAEVKKPGSSVKVSCKASGYTFTNYVINWVRQAPGQGLEWIGYNDPYNDVSKYNEKFKGRATITSDKSTSTAYMELSSLRSEDTAVYYCAKEGGGKYVYAMDSWGQGTTVTVSS VL: DIQMTQSPSSLSASVGDRVTITCKASQSVSSDVGWYQQKPGKAPKLLIYSGSNRYSGVPSRFSGSGSGTDFTLTISSLQPEDFATYYCQQDYYSPWTFGQGTKVEIK
